Assay results: the supplement of paper PMC10567573

B1: C22orf15 (parent)
chain: PRGRAHLLPNPYQQDFLGLPEELR

Variants of: B1
Assay: protein stability index of a GFP-peptide fusion (GPS, HEK-293T) (PSI 1-6); higher = more stable
Conditions: c terminus: a fixed tail appended
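Note: lentivirally expressed fusions sorted by FACS into six bins by GFP to DsRed ratio, PSI derived from sequencing read proportions per bin multiplied by bin number.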

Variant	protein stability index
PRGRAHLLPNPWQQDFLGLPEELR [Y12W]	2.87
PRGRAHLLPNPGQQDFLGLPEELR [Y12G]	4.87
PRGRAHLLPNPHQQDFLGLPEELR [Y12H]	4.02
PRGRAHLLPNPEQQDFLGLPEELR [Y12E]	4.54
PRGRAHLLPNPQQQDFLGLPEELR [Y12Q]	4.07
PRGRAHLLPNPPQQDFLGLPEELR [Y12P]	4.41
PRGRAHLLPNPLQQDFLGLPEELR [Y12L]	3.85
PRGRAHLLPNPKQQDFLGLPEELR [Y12K]	4.11
PRGRAHLLPNPDQQDFLGLPEELR [Y12D]	4.53
PRGRAHLLPNPIQQDFLGLPEELR [Y12I]	4.36
PRGRAHLLPNPSQQDFLGLPEELR [Y12S]	4.54
PRGRAHLLPNPFQQDFLGLPEELR [Y12F]	3.5
PRGRAHLLPNPCQQDFLGLPEELR [Y12C]	3.84
PRGRAHLLPNPMQQDFLGLPEELR [Y12M]	4.61
PRGRAHLLPNPNQQDFLGLPEELR [Y12N]	4.61
PRGRAHLLPNPVQQDFLGLPEELR [Y12V]	4.17
PRGRAHLLPNPRQQDFLGLPEELR [Y12R]	4.33
PRGRAHLLPNPAQQDFLGLPEELR [Y12A]	4.51
PRGRAHLLPNPTQQDFLGLPEELR [Y12T]	4.44
PRGRAHLLPHPYQQDFLGLPEELR [N10H]	4.06
PRGRAHLLPVPYQQDFLGLPEELR [N10V]	4.14
PRGRAHLLPQPYQQDFLGLPEELR [N10Q]	4.12
PRGRAHLLPGPYQQDFLGLPEELR [N10G]	4
PRGRAHLLPPPYQQDFLGLPEELR [N10P]	4.07

Variant	protein stability index
PRGRAHLLPFPYQQDFLGLPEELR [N10F]	3.35
PRGRAHLLPEPYQQDFLGLPEELR [N10E]	3.61
PRGRAHLLPWPYQQDFLGLPEELR [N10W]	2.88
PRGRAHLLPMPYQQDFLGLPEELR [N10M]	3.54
PRGRAHLLPRPYQQDFLGLPEELR [N10R]	3.53
PRGRAHLLPDPYQQDFLGLPEELR [N10D]	4.16
PRGRAHLLPCPYQQDFLGLPEELR [N10C]	3.58
PRGRAHLLPSPYQQDFLGLPEELR [N10S]	4.29
PRGRAHLLPYPYQQDFLGLPEELR [N10Y]	3.46
PRGRAHLLPTPYQQDFLGLPEELR [N10T]	4.05
PRGRAHLLPIPYQQDFLGLPEELR [N10I]	3.97
PRGRAHLLPAPYQQDFLGLPEELR [N10A]	3.95
PRGRAHLLPLPYQQDFLGLPEELR [N10L]	3.69
PRGRAHLLPKPYQQDFLGLPEELR [N10K]	3.77
PRGRAHLLSNPYQQDFLGLPEELR [P9S]	3.88
PRGRAHLLFNPYQQDFLGLPEELR [P9F]	2.94
PRGRAHLLCNPYQQDFLGLPEELR [P9C]	2.66
PRGRAHLLANPYQQDFLGLPEELR [P9A]	3.66
PRGRAHLLDNPYQQDFLGLPEELR [P9D]	3.79
PRGRAHLLLNPYQQDFLGLPEELR [P9L]	3.35
PRGRAHLLENPYQQDFLGLPEELR [P9E]	3.89
PRGRAHLLWNPYQQDFLGLPEELR [P9W]	2.53
PRGRAHLLHNPYQQDFLGLPEELR [P9H]	3.29
PRGRAHLLYNPYQQDFLGLPEELR [P9Y]	3.32

Variant	protein stability index
PRGRAHLLQNPYQQDFLGLPEELR [P9Q]	3.84
PRGRAHLLGNPYQQDFLGLPEELR [P9G]	2.77
PRGRAHLLVNPYQQDFLGLPEELR [P9V]	3.71
PRGRAHLLRNPYQQDFLGLPEELR [P9R]	3.18
PRGRAHLLNNPYQQDFLGLPEELR [P9N]	3.77
PRGRAHLLINPYQQDFLGLPEELR [P9I]	2.88
PRGRAHLLMNPYQQDFLGLPEELR [P9M]	3.8
PRGRAHLLKNPYQQDFLGLPEELR [P9K]	3.73
PRGRAHLLTNPYQQDFLGLPEELR [P9T]	3.61
PRGRAHLLPNPYQMDFLGLPEELR [Q14M]	3.56
PRGRAHLLPNPYQTDFLGLPEELR [Q14T]	3.77
PRGRAHLLPNPYQRDFLGLPEELR [Q14R]	3.19
PRGRAHLLPNPYQDDFLGLPEELR [Q14D]	4.7
PRGRAHLLPNPYQCDFLGLPEELR [Q14C]	3.46
PRGRAHLLPNPYQNDFLGLPEELR [Q14N]	3.91
PRGRAHLLPNPYQEDFLGLPEELR [Q14E]	4.47
PRGRAHLLPNPYQKDFLGLPEELR [Q14K]	4.01
PRGRAHLLPNPYQVDFLGLPEELR [Q14V]	3.26
PRGRAHLLPNPYQLDFLGLPEELR [Q14L]	3.54
PRGRAHLLPNPYQHDFLGLPEELR [Q14H]	3.92
PRGRAHLLPNPYQPDFLGLPEELR [Q14P]	4.5
PRGRAHLLPNPYQFDFLGLPEELR [Q14F]	3.66
PRGRAHLLPNPYQYDFLGLPEELR [Q14Y]	2.98
PRGRAHLLPNPYQSDFLGLPEELR [Q14S]	3.96

Variant	protein stability index
PRGRAHLLPNPYQGDFLGLPEELR [Q14G]	3.67
PRGRAHLLPNPYQIDFLGLPEELR [Q14I]	3.19
PRGRAHLLPNPYQADFLGLPEELR [Q14A]	3.73
PRGRAHLLPNPYQWDFLGLPEELR [Q14W]	2.93
PRGRAHLLPNEYQQDFLGLPEELR [P11E]	4.74
PRGRAHLLPNVYQQDFLGLPEELR [P11V]	3.5
PRGRAHLLPNYYQQDFLGLPEELR [P11Y]	3.56
PRGRAHLLPNCYQQDFLGLPEELR [P11C]	3.51
PRGRAHLLPNRYQQDFLGLPEELR [P11R]	3.33
PRGRAHLLPNSYQQDFLGLPEELR [P11S]	3.83
PRGRAHLLPNAYQQDFLGLPEELR [P11A]	3.41
PRGRAHLLPNGYQQDFLGLPEELR [P11G]	4.3
PRGRAHLLPNTYQQDFLGLPEELR [P11T]	4.1
PRGRAHLLPNWYQQDFLGLPEELR [P11W]	2.71
PRGRAHLLPNDYQQDFLGLPEELR [P11D]	4.12
PRGRAHLLPNLYQQDFLGLPEELR [P11L]	3.42
PRGRAHLLPNHYQQDFLGLPEELR [P11H]	3.33
PRGRAHLLPNQYQQDFLGLPEELR [P11Q]	4.35
PRGRAHLLPNFYQQDFLGLPEELR [P11F]	3.44
PRGRAHLLPNKYQQDFLGLPEELR [P11K]	4.04
PRGRAHLLPNIYQQDFLGLPEELR [P11I]	3.55
PRGRAHLLPNNYQQDFLGLPEELR [P11N]	4.24
PRGRAHLLPNMYQQDFLGLPEELR [P11M]	3.72
PRGRAHLYPNPYQQDFLGLPEELR [L8Y]	3.25

Variant	protein stability index
PRGRAHLLPNPYQQDFEGLPEELR [L17E]	4.94
PRGRAHLLPNPYQQDFMGLPEELR [L17M]	3.44
PRGRAHLLPNPYQQDFYGLPEELR [L17Y]	3.6
PRGRAHLLPNPYQQDFFGLPEELR [L17F]	3.47
PRGRAHLLPNPYQQDFWGLPEELR [L17W]	3.37
PRGRAHLLPNPYQQDFQGLPEELR [L17Q]	4.4
PRGRAHLLPNPYQQDFKGLPEELR [L17K]	4.42
PRGRAHLLPNPYQQDFVGLPEELR [L17V]	4.52
PRGRAHLLPNPYQQDFDGLPEELR [L17D]	4.87
PRGRAHLLPNPYQQDFPGLPEELR [L17P]	4.3
PRGRAHLLPNPYQQDFHGLPEELR [L17H]	4.41
PRGRAHLLPNPYQQDFRGLPEELR [L17R]	4.03
PRGRAHLLPNPYQQDFCGLPEELR [L17C]	4.04
PRGRAHLLPNPYQQDFSGLPEELR [L17S]	4.2
PRGRAHLLPNPYQQDFNGLPEELR [L17N]	4.28
PRGRAHLLPNPYQQDFTGLPEELR [L17T]	4.17
PRGRAHLLPNPYQQDFAGLPEELR [L17A]	4.43
PRGRAHLLPNPYQQDFIGLPEELR [L17I]	2.85
PRGRAHLLPNPYQQDFGGLPEELR [L17G]	3.84
PRGRAHLLPNPYQQDFLELPEELR [G18E]	4.36
PRGRAHLLPNPYQQDFLNLPEELR [G18N]	4.25
PRGRAHLLPNPYQQDFLHLPEELR [G18H]	4.19
PRGRAHLLPNPYQQDFLRLPEELR [G18R]	3.32
PRGRAHLLPNPYQQDFLDLPEELR [G18D]	4.66

Variant	protein stability index
PRGRAHLLPNPYQQDFLCLPEELR [G18C]	3.9
PRGRAHLLPNPYQQDFLALPEELR [G18A]	4.25
PRGRAHLLPNPYQQDFLKLPEELR [G18K]	4.13
PRGRAHLLPNPYQQDFLSLPEELR [G18S]	3.94
PRGRAHLLPNPYQQDFLFLPEELR [G18F]	3.24
PRGRAHLLPNPYQQDFLILPEELR [G18I]	3.49
PRGRAHLLPNPYQQDFLLLPEELR [G18L]	3.7
PRGRAHLLPNPYQQDFLTLPEELR [G18T]	4.05
PRGRAHLLPNPYQQDFLPLPEELR [G18P]	3.71
PRGRAHLLPNPYQQDFLMLPEELR [G18M]	3.98
PRGRAHLLPNPYQQDFLQLPEELR [G18Q]	4.27
PRGRAHLLPNPYQQGFLGLPEELR [D15G]	3.44
PRGRAHLLPNPYQQCFLGLPEELR [D15C]	2.67
PRGRAHLLPNPYQQNFLGLPEELR [D15N]	3.31
PRGRAHLLPNPYQQYFLGLPEELR [D15Y]	3.2
PRGRAHLLPNPYQQMFLGLPEELR [D15M]	2.97
PRGRAHLLPNPYQQSFLGLPEELR [D15S]	3.19
PRGRAHLLPNPYQQRFLGLPEELR [D15R]	3.74
PRGRAHLLPNPYQQIFLGLPEELR [D15I]	3.22
PRGRAHLLPNPYQQAFLGLPEELR [D15A]	3.38
PRGRAHLLPNPYQQLFLGLPEELR [D15L]	2.99
PRGRAHLLPNPYQQHFLGLPEELR [D15H]	3.17
PRGRAHLLPNPYQQTFLGLPEELR [D15T]	3.44
PRGRAHLLPNPYQQQFLGLPEELR [D15Q]	3.69

Variant	protein stability index
PRGRAHLLPNPYQQWFLGLPEELR [D15W]	2.98
PRGRAHLLPNPYQQPFLGLPEELR [D15P]	3.76
PRGRAHLLPNPYQQKFLGLPEELR [D15K]	3.3
PRGRAHLLPNPYQQFFLGLPEELR [D15F]	2.96
PRGRAHLLPNPYQQEFLGLPEELR [D15E]	3.74
PRGRAHLLPNPYQQVFLGLPEELR [D15V]	3.36
PRGRAHLLPNPYQQDQLGLPEELR [F16Q]	3.84
PRGRAHLLPNPYQQDGLGLPEELR [F16G]	4.4
PRGRAHLLPNPYQQDCLGLPEELR [F16C]	4.11
PRGRAHLLPNPYQQDSLGLPEELR [F16S]	3.83
PRGRAHLLPNPYQQDHLGLPEELR [F16H]	4.44
PRGRAHLLPNPYQQDMLGLPEELR [F16M]	4.15
PRGRAHLLPNPYQQDVLGLPEELR [F16V]	4.17
PRGRAHLLPNPYQQDPLGLPEELR [F16P]	4.12
PRGRAHLLPNPYQQDALGLPEELR [F16A]	4.12
PRGRAHLLPNPYQQDILGLPEELR [F16I]	4.01
PRGRAHLLPNPYQQDKLGLPEELR [F16K]	4.22
PRGRAHLLPNPYQQDRLGLPEELR [F16R]	4.15
PRGRAHLLPNPYQQDDLGLPEELR [F16D]	4.92
PRGRAHLLPNPYQQDELGLPEELR [F16E]	4.63
PRGRAHLLPNPYQQDYLGLPEELR [F16Y]	4.17
PRGRAHLLPNPYQQDNLGLPEELR [F16N]	4.36
PRGRAHLLPNPYQQDWLGLPEELR [F16W]	3.65
PRGRAHLLPNPYQQDTLGLPEELR [F16T]	4.17

Variant	protein stability index
PRGRAHLLPNPYQQDLLGLPEELR [F16L]	4.23
PRGRAHLLPNPYVQDFLGLPEELR [Q13V]	3.59
PRGRAHLLPNPYWQDFLGLPEELR [Q13W]	2.7
PRGRAHLLPNPYMQDFLGLPEELR [Q13M]	3.42
PRGRAHLLPNPYIQDFLGLPEELR [Q13I]	3.1
PRGRAHLLPNPYRQDFLGLPEELR [Q13R]	3.75
PRGRAHLLPNPYFQDFLGLPEELR [Q13F]	3.1
PRGRAHLLPNPYKQDFLGLPEELR [Q13K]	3.65
PRGRAHLLPNPYLQDFLGLPEELR [Q13L]	3.43
PRGRAHLLPNPYSQDFLGLPEELR [Q13S]	3.56
PRGRAHLLPNPYGQDFLGLPEELR [Q13G]	4.1
PRGRAHLLPNPYEQDFLGLPEELR [Q13E]	4.05
PRGRAHLLPNPYCQDFLGLPEELR [Q13C]	3.39
PRGRAHLLPNPYTQDFLGLPEELR [Q13T]	3.64
PRGRAHLLPNPYPQDFLGLPEELR [Q13P]	4.21
PRGRAHLLPNPYAQDFLGLPEELR [Q13A]	3.7
PRGRAHLLPNPYHQDFLGLPEELR [Q13H]	3.74
PRGRAHLLPNPYNQDFLGLPEELR [Q13N]	3.66
PRGRAHLLPNPYYQDFLGLPEELR [Q13Y]	3.46
PRGRAHLLPNPYDQDFLGLPEELR [Q13D]	4.1
